According to FireProtDB (doi:10.1021/bi991422s):

B1: Guanyl-specific ribonuclease T1, P00651 (parent)
chain: MMYSKLLTLTTLLLPTALALPSLVERACDYTCGSNCYSSSDVSTAQAAGYQLHEDGETVGSNSYPHKYNNYEGFDFSVSSPYYEWPILSSGDVYSGGSPGADRVVFNENNQLAGVITHTGASGNNFVECT

Variants of: B1
Settings: Aspergillus oryzae (strain ATCC 42149 / RIB 40); pH 7; 15 °C; Thermal; DSC; MOPS 30 mM; reversible: yes; structure 1RN1; whole UniProt chain shown

Which “ddG of mutation (higher = less stable)” value does the source give for D102A here?
Its value is 3.8 kcal/mol.

What about the “heat capacity change of unfolding” value of the same variant?
The value was 1.39 kcal/mol/K.

For D102S, which “ddG of mutation (higher = less stable)” value is on record?
The value was 3.1 kcal/mol.

What about the “heat capacity change of unfolding” value of the same variant?
The value was 1.39 kcal/mol/K.

Same assay, conditions: Aspergillus oryzae (strain ATCC 42149 / RIB 40); pH 7; 15 °C; Urea; DSC; MOPS 30 mM; reversible: yes; structure 1RN1; whole UniProt chain shown

Which “ddG of mutation (higher = less stable)” value does the source give for D102A here?
The value was 3.7 kcal/mol.

And the denaturant m value?
The denaturant m value was 1.42 kcal/mol/M.

And the “denaturant midpoint (higher = more stable)” value (“denaturant midpoint” below)?
The value was 2.57 M.

Which “ddG of mutation (higher = less stable)” value does the source give for D102N here?
Its value is 3.09 kcal/mol.

And the denaturant m value?
The denaturant m value was 1.41 kcal/mol/M.

And the “denaturant midpoint” value?
The value was 3.01 M.

What about the unfolding free energy of the same variant?
Its unfolding free energy is 4.25 kcal/mol.

Same assay, conditions: Aspergillus oryzae (strain ATCC 42149 / RIB 40); pH 7; Thermal; DSC; MOPS 30 mM; reversible: yes; structure 1RN1; whole UniProt chain shown

Which Tm does the source give for D102A here?
The Tm was 35.6 °C.

And the “change of melting temperature, mutant - wild type (higher = more stable)” value (“change of melting temperature, mutant” for short)?
Its value is -15.2 °C.

What about the “unfolding enthalpy (calorimetric)” value of the same variant?
Its value is 71.1 kcal/mol.

For D102N, which Tm is on record?
The Tm was 37 °C.

And the “change of melting temperature, mutant” value?
The value was -13.8 °C.

And the “unfolding enthalpy (calorimetric)” value?
The value was 76 kcal/mol.

For D102S, which Tm is on record?
The Tm was 37.2 °C.

And the “change of melting temperature, mutant” value?
Its value is -13.6 °C.

What about the “unfolding enthalpy (calorimetric)” value of the same variant?
The value was 77.6 kcal/mol.

Same assay, conditions: Aspergillus oryzae (strain ATCC 42149 / RIB 40); pH 7; 5 °C; Urea; DSC; MOPS 30 mM; reversible: yes; structure 1RN1; whole UniProt chain shown

Which “ddG of mutation (higher = less stable)” value does the source give for D102N here?
The value was 2.77 kcal/mol.

What about the denaturant m value of the same variant?
Its denaturant m value is 1.53 kcal/mol/M.

And the “denaturant midpoint” value?
The value was 3.63 M.

And the unfolding free energy?
Its unfolding free energy is 5.55 kcal/mol.

Same assay, conditions: Aspergillus oryzae (strain ATCC 42149 / RIB 40); pH 7; 10 °C; Urea; DSC; MOPS 30 mM; reversible: yes; structure 1RN1; whole UniProt chain shown

Which “ddG of mutation (higher = less stable)” value does the source give for D102N here?
Its value is 2.87 kcal/mol.

And the denaturant m value?
The denaturant m value was 1.52 kcal/mol/M.

And the “denaturant midpoint” value?
Its value is 3.3 M.

And the unfolding free energy?
The unfolding free energy was 5 kcal/mol.

Same assay, conditions: Aspergillus oryzae (strain ATCC 42149 / RIB 40); pH 7; 20 °C; Urea; DSC; MOPS 30 mM; reversible: yes; structure 1RN1; whole UniProt chain shown

For D102N, which “ddG of mutation (higher = less stable)” value is on record?
Its value is 3.19 kcal/mol.

And the denaturant m value?
Its denaturant m value is 1.48 kcal/mol/M.

And the “denaturant midpoint” value?
Its value is 2.39 M.

And the unfolding free energy?
The unfolding free energy was 3.53 kcal/mol.

Same assay, conditions: Aspergillus oryzae (strain ATCC 42149 / RIB 40); pH 7; 25 °C; Urea; DSC; MOPS 30 mM; reversible: yes; structure 1RN1; whole UniProt chain shown

Which “ddG of mutation (higher = less stable)” value does the source give for D102N here?
The value was 3.51 kcal/mol.

What about the denaturant m value of the same variant?
The denaturant m value was 1.44 kcal/mol/M.

What about the “denaturant midpoint” value of the same variant?
The value was 1.8 M.

And the unfolding free energy?
The unfolding free energy was 2.58 kcal/mol.
